Biological target: T1, keyhole limpet hemocyanin (multimeric high molecular weight KLH) (Megathura crenulata (keyhole limpet), UniProt Q10583 17-3414; Q10584 20-3421)
T1 construct: also called mcKLH; Multimeric KLH
Experiment: SPR (BIAcore 2000), antibody captured on anti-human IgG Fc surface, multimeric KLH injected; apparent constants
Experimental: Multimeric high molecular weight keyhole limpet hemocyanin (KLH) was from Pierce (Rockford, Ill.). Anti-human IgG, Fcγ-specific antibody was from Jackson ImmunoResearch Laboratories, Inc. (West Grove, Pa.). BIACore 2000, research grade sensor chip CM5, surfactant P-20 (polyoxyethylenesorbitan), HBS-EP (10 mM HEPES, 0.15M NaCl, 3.4 mM EDTA, 0.005% P-20, pH 7.4), amine coupling reagents, 10 mM acetate, pH 4.5, and 10 mM glycine, pH 1.5 were from BIACore, Inc. (Piscataway, N.J.). Phosphate-buffered saline (PBS, 1×, no calcium chloride, no magnesium chloride) was from Invitrogen (Carlsbad, Calif.). Bovine serum albumin (BSA, fraction V, IgG free) was from Sigma (St. Louis, Mo.).
Anti-KLH antibody wase captured on individual flow cells, followed by injection of either sample buffer or KLH, ranging in concentration from 0.19-100 nM. To prepare dilutions of the multimeric high molecular weight KLH, an average molecular weight of 5,000,000 daltons was used. Following sample buffer or antigen injection, each surface was regenerated by two injections of 10 mM glycine, pH 1.5 to dissociate captured antibody from the immobilized anti-human Fc surfaces. BIAevaluation software was used to determine apparent kinetic parameters for binding of KLH to captured anti-KLH antibodies.

B1: anti-KLH antibody (human IgG1, clone 120.6.1) (antibody, V domains shown)
VH: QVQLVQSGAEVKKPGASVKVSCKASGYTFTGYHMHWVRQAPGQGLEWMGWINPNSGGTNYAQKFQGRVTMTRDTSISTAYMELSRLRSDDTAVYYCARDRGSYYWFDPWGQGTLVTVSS
VL: DIQMTQSPSSLSASVGDRVTITCRASQGIRNDLGWYQQKPGKAPKRLIYAASSLQSGVPSRFSGSGSGTEFTLTISSLQPEDFATYYCLQHNSYPLTFGGGTKVEIK
notes: also called IgG1 (120.6.1); anti-KLH 120.6.1
- Kd: 0.2 nM
- koff: 2.5e-05 s⁻¹
- kon: 120000 M⁻¹ s⁻¹
